Reference: patent US20200384079A1, “Compositions of Fibroblast Growth Factor LIgands and Methods of Treating Patients Undergoing Ischemia-Reperfusion Therapy” (University of Cincinnati, priority 2017, published 2020)
“And” between values parts separate entries of the source, which are not always exact repeats. Equal entries are not always repeated. “Also recorded” adds a separate entry of the source.

T1: FGFR3c ectodomain (Homo sapiens, UniProt P22607)
T1 sequence (P22607 23-375 limits assumed): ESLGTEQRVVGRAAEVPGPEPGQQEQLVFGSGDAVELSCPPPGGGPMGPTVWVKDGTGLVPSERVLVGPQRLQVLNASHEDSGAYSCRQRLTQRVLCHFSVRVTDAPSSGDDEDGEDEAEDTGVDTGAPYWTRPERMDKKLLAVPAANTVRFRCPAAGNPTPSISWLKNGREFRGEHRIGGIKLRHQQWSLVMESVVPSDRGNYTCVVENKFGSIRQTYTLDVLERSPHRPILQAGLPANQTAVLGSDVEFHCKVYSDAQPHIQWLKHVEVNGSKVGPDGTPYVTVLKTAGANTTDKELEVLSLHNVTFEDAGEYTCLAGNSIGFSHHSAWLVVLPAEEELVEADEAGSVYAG


Tests used:
FGFR1 = FGFR1 activation (phosphorylation) in left ventricle, immunoblot; parameters: species or system rat; conditions: in vivo, after 15 minutes of treatment
Method: One-half of each snap-frozen heart was powdered and homogenized in protein extraction buffer as previously described by our laboratory. For FGFR1, 150 μg of total protein were loaded onto a 8% SDS-PAGE gel, for ERK1/2 activation, 20 μg of whole cell protein homogenate was loaded onto a 15% SDS-PAGE gel, and for PKCα and PKCδ, […] of whole cell protein homogenate was loaded onto a 10% SDS-PAGE gel and then transferred to nitrocellulose membrane. 0.1% Ponceau S in 5% acetic acid was used to examine the transfer efficiency and loading equality as described previously 43. Membranes were blocked with 5% dry milk and then incubated with primary antibody against phospho-FGFR1 (Y-654, 1:500, Cell Signaling), phospho-ERK1/2 (1:1000, Cell Signaling) or phospho-PKCα (1:500, Santa Cruz) or phospho-PKCδ (1:500, Santa Cruz) followed by incubation with HRP-conjugated secondary goat anti-rabbit antibody (1:3000, Santa Cruz Biotechnology). […]
Construction of his-tagged native and heparin-binding modified rhFGFs as well as their expression and purification is performed as previously described using his-tagged expression vectors and nickel-nitrilotriacetic acid resin columns. […] His-tagged FGFs are detected in solid organs by ELISA (FIG. 14) both for FGF and histidine (data not shown), and immunoprecipitation (IP) followed by immunoblot and in plasma by ELISA as described previously. […]

[1] = tested on: in vivo rat model of myocardial infarction; test: In vivo rat ischemia-reperfusion model, infarct size (TTC); parameters: species or system Sprague Dawley rats; conditions: for effect on infarct size / cardioprotection (in words): FGF given at reperfusion with heparin co-therapy; for effect on infarct size (in words): given at reperfusion, no heparin co-therapy; for reduction in infarct size compared to saline/vehicle control: given i.v. at reperfusion alone (FGF 10 μg/kg; heparin 12 U/kg/hr)
Method: CVR-2016-799R1 signaling and the other two sets were to evaluate the pharmacokinetic properties of native FGF1 and modified FGF1 (FGF1^ΔHBS). The first set of experiments was for the ischemia/reperfusion study in which animals were divided into six groups as follows: (1) saline group: saline treatment given intravenously for 10 minutes immediately upon reperfusion, (2) heparin group: heparin, 60 U/kg intravenous (i.v.) bolus, given immediately at reperfusion+12 U/kg/hr i.v. infusion for 120 minutes of reperfusion, (3) FGF1 group: FGF1, 10 μg/kg i.v. infusion, given for 10 minutes immediately at reperfusion, (4) FGF1+heparin: heparin, 60 U/kg bolus, given immediately upon reperfusion followed by FGF1, 10 μg/kg i.v. infusion, given for 10 minutes and 12 U/kg/hr i.v. infusion given for 110 minutes of reperfusion, (5) modified FGF1 (FGF1^ΔHBS) group: FGF1^ΔHBS, 10 μg/kg i.v. infusion, given for 10 minutes, or (6) FGF1^ΔHBS+heparin: heparin, 60 U/kg bolus, given immediately at reperfusion followed by FGF1^ΔHBS, 10 μg/kg i.v. infusion, given for 10 minutes and 12 U/kg/hr i.v. infusion for 110 minutes of reperfusion. All rats were subjected to 30 minutes of regional ischemia and 120 minutes of reperfusion. Drugs were administered at the onset of reperfusion via the jugular vein (FIG. 2A). […] A total of ninety-six rats was completed for the I/R study. Sample size for each group ranged from 9-16 depending on the power analysis. A total of thirty-five rats were excluded from the study based on the lack of cyanosis of the heart or typical elevation of the ST segment in the electrocardiogram during ischemia, and death from malignant arrhythmia. For the biodistribution or FGF1 signaling study, rats were randomly divided into six groups as described above (FIG. 2B). Following drug treatment (immediately following 15 minutes of treatment or 105 minutes post-treatment at the point which mimics the length of time of reperfusion), solid organs and blood (see sections “Tissue collection for exogenous FGF1 biodistribution” and “Cardiac preparation to detect the activation of FGF1 downstream molecules”) were collected. A total of 33 rats were used for biodistribution and FGF1 signaling studies, and 3 rats were excluded due to anesthetic overdose. Also, a total of 8 plasma samples were excluded because of hemolysis. For elimination half-life of native FGF1 and FGF1^ΔHBS, 12 rats were randomly divided into two groups and treated intraperitoneally with either FGF1 form as described in the section “Pharmacokinetic evaluation of exogenous FGF1 or FGF1^ΔHBS ”.
The in vivo I/R model was established by ligating and loosening the left anterior CVR-2016-799R1 descending artery (LAD) previously described by our laboratory. In brief, rats were anesthetized with thiobutabarbital sodium salt hydrate, Inactin® hydrate (100 mg/kg, i.p., Sigma-Aldrich), and intubated and artificially ventilated via a rodent respirator (respiratory rate: 75 strokes/minute; tidal volume: 3 mL; Model 683, Harvard, USA). The heart was exposed through a left thoracotomy and pericardiotomy, and a 6-0 silk suture was placed around the left anterior descending (LAD) coronary artery. After equilibration for 15 minutes, hearts were subjected to 30 minutes of ischemia by ligating the LAD via a snare occluder and reperfusion occurred for 120 minute via loosening the snare occluder. The appearance of cyanosis of the heart and significant ST-segment elevation in the electrocardiogram were used to verify successful ligation.
At the end of the ischemia-reperfusion injury study, the LAD was re-occluded with the suture used previously for the establishment of ischemia. 5% Evans blue dye solution was given via the jugular vein to define the area-at-risk (AAR). Then, the heart was arrested in diastole with 1 mL of 15% potassium chloride, and the animal was euthanized with an anesthetic overdose followed by a bilateral pneumothorax for removal of the heart. […]

FGFR3c ectodomain = molecular target: T1, FGFR3c ectodomain; test: ITC of FGF binding to FGFR3c ectodomain; conditions: for Kd: read-out: affinity for FGFR3c ectodomain
[2] = as E6 but FGF 10 μg/kg i.v. in the presence of heparin co-administration
[3] = rat, 30 min ischemia/120 min reperfusion, given i.v. at reperfusion alone (FGF 10 μg/kg; heparin 60 U/kg bolus + 12 U/kg/hr)

| Molecule | FGFR1 activation (phosphorylation, Y-654) in left ventricle (in words) (FGFR1) | infarct size (% infarct, percentage of area-at-risk) [1, 2] | infarct size (% infarct, percentage of area-at-risk) [1, 3] | effect on infarct size / cardioprotection (in words) ([1]; rat, listed as native FGF1) | effect on infarct size (in words) ([1]; rat) | reduction in infarct size compared to saline/vehicle control ([1]; rat) | reduction in infarct size compared to saline/vehicle control ([1]; rat, listed as native FGF1) | Kd (FGFR3c ectodomain) | effect on infarct size / cardioprotection (in words) ([1]; rat) | fold more efficacious in reducing infarct size than native FGF1 ([1]; rat, same dose at reperfusion) | FGFR (receptor) binding affinity (in words) (FGFR3c ectodomain; FGFR3c ectodomain) |
| --- | --- | --- | --- | --- | --- | --- | --- | --- | --- | --- | --- |
| FGF1: native recombinant human fibroblast growth factor 1 | elevated | 42% | 35% | markedly attenuated in the presence of heparin; also recorded: lower in the presence of heparin | significantly reduced infarct size compared to saline | 31% | 39% and 31% | 704 nM |  |  |  |
| FGF1^ΔHBS: FGF1 mutant carrying the K127D/K128Q/K133V triple mutation in its HS-binding region; reduced heparin-binding affinity (protein) MAEGEITTFTALTEKFNLPPGNYKKPKLLYCSNGGHFLRILPDGTVDGTRDRSDQHIQLQLSAESVGEVYIKSTETGQYLAMDTDGLLYGSQTPNEECLFLERLEENHYNTYISKKHAEKNWFVGLDQNGSCVRGPRTHYGQKAILFLPLPVSSD | elevated | 32% | 22% |  | marked reduction in infarct size compared to the native form of FGF1; also recorded: markedly lowered infarct size compared to FGF1 | 62% and 60% |  | 432 nM | minor, and no statistically significant, inhibition; also recorded: did not reduce the cardioprotective effect; also recorded: not altered in the presence of heparin | ~2 fold | retains normal receptor binding affinity |
